Laboratory results reported in article PMC2168087.

B1: 6xHis-tagged PDZ1 domain of ZO-3 (aa 5-96) (domain or fragment)
chain: TIWEQHTATLYKDPRRGFGIAVSGGHDRASGSVVVSDVVPGSPAEGRLRTGDHIVMVNGVSVENVTSAFAIQILKTCTKTANVTVKRPRRVQ
B2: 6xHis-tagged PDZ1 domain of ZO-2 (aa 4-100) (domain or fragment)
chain: VIWEQYTVTLQKDSKRGFGIAVSGGRDNPHFENGETSIVISDVLPGGPADGLLQENDRVVMVNGTPMEDVLHSFAVQQLRKSGKIAAIVVKRPRKVQ
B3: 6xHis-tagged PDZ1 domain of ZO-1 (aa 19-113) (domain or fragment)
chain: WEQHTVTLHRAPGFGFGIAISGGRDNPHFQSGETSIVISDVLKGGPAEGQLQENDRVAMVNGVSMDNVEHAFAVQQLRKSGKNAKITIRRKKKVQ

molecular target: GST fusion protein with the cytoplasmic domain of claudin-1 (UniProt O88551); assay: pull-down
Chain of UniProt O88551 (O88551 whole entry, the tested form may be a part): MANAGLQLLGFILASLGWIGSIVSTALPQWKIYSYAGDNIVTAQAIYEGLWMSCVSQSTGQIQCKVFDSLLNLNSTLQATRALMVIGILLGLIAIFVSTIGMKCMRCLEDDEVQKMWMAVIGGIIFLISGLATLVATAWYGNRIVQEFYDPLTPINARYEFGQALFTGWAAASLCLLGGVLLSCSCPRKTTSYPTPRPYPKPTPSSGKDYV

Kd | Binder
18 nM | B1
11 nM | B2
13 nM | B3
